Laboratory results taken from patent US11999782B2, “Therapeutic agents for the treatment of diseases associated with undesired cell proliferation” (Fundació Privada Institutció Catalana de Recerca I Estudis …, priority 2009, dated 2024).

How the values were obtained:
[1] = system: LIF expression in GBM neurospheres; test: LIF mRNA by qRT-PCR in GBM neurospheres; assay type: cell-based, human; conditions: 100 pM, 3 hours, medium without serum
Protocol: FIG. 3. TGFβ induces the expression of LIF in PCTC and GBM neurospheres. (A) PCTC cells of the 11 samples of the indicated GEM (GBM1-11) were treated with 100 pM TGFβ1 for 3 hours in medium without serum or left untreated, and the expression levels of LIF were determined by means of qRT-PCR. The g-actin was determined as an internal normalization control. (B) GBM neurosphere cells were treated as in A and the expression levels of LIF were determined by means of qRT-PCR as in A. (C) GBM neurospheres were incubated with 100 pM TGFβ1 and/or 2 μM TβRI inhibitor for 3 hours in medium without serum and the mRNA levels of LIF were determined by means of qRT-PCR as in A. (D) GBM1 neurospheres were incubated with 100 pM TGFβ1, TGFβ2 and TGFβ3 for 3 hours in medium without serum and the mRNA levels of LIF were determined by means of qRT-PCR as in A. (E) The levels of LIF protein secreted were determined by means of ELISA in GBM1 neurospheres after 48 hours of treatment with 100 pM TGFβ1.
The U373MG and A172 cells were a generous gift from J. Rich and D. Bigner and were cultured in DMEM with 10% fetal bovine serum (FBS). The primary culture of tumor cells (PCTC) and the GBM neurospheres were generated as described (Bruna et al., (2007) Cancer Cell 11, 147-160; Gunther et al., (2008) Oncogene. May 1; 27(20):2897-909). Briefly, the samples of tumors were processed in the 30 minutes after the surgical resection. The ground pieces of the samples of human gliomas were digested with 200 U/ml collagenase I (Sigma) and 500 U/ml of DNase I (Sigma) in PBS for 2 hours at 37° C. and with constant vigorous stirring. The suspension of individual cells was filtered through a 70 μm cell filter (BD Falcon) and washed with PBS. Finally, the cells were resuspended and subsequently cultured in DMEM with 10% FBS, for the culture of PCTCs, or in neurosphere medium in the case of the GBM neurospheres. The neurospheres of normal human neuroprogenitors were generated from human embryonic cerebral cortex tissue (12-16 weeks after the conception) collected after voluntary abortions. The samples were processed and cultured as described (Poltavtseva et al. (2002) Brain Res Dev Brain Res 134, 149-154). The neurosphere medium consists of neurobasal medium (Gibco) supplemented with B27 (Gibco), L-glutamine (Gibco), penicillin/streptomycin, and growth factors (20 ng/mL EGF and 20 ng/mL FGF-2 (Peprotech)).
(§1) qRT-PCR was performed using Taqman probes from Applied Biosystems, according to the manufacturer's recommendations. The reactions were carried out in a ABI 7000 sequence detector (Perkin Elmer) and the results were expressed as the fold change calculated by means of the DDCt method relative to the control sample or the first quantified sample. The ribosomal unit of 18S or β-actin were used as internal normalization controls.
It was decided to investigate the molecular mechanisms responsible for the effect of TGFβ on GICs. Gene responses to TGFβ in GBM cells which could be involved in the regulation of the self-renewal of GICs were investigated. In a previous work (Bruna et al., 2007), transcriptome analyses were conducted in the U373MG glioma cell line treated with TGFβ and/or a TβRI inhibitor. LIF was among the 63 gene responses to TGFβ in U373MG which were dependent on the activity of TβRI. […] A panel of PCTCs derived from 11 different human GBMs was treated with TGFβ for 3 hours and the levels of LIF mRNA were determined.

[2] = system: LIF expression in normal human neuroprogenitors; test: LIF mRNA in neurospheres of normal human neuroprogenitors; assay type: cell-based; conditions: 100 pM, 3 hours, compared with GBM neurospheres
Protocol: FIG. 8. Effect of TGFβ on the capacity of self-renewal of normal human neuroprogenitors. (A) Immunocytochemistry of the indicated markers was performed in human neuroprogenitor neurospheres. (B) Neurospheres of the sample of GBM1 and of human neuroprogenitors were incubated with the indicated members of the 100 pM TGFβ family for 3 hours and the mRNA levels of LIF were determined. (C, D) Neurosphere cells of normal human neuroprogenitors were incubated in the same conditions that have been described above in FIG. 1D in the presence of 100 pM TGFβ1 or 20 ng/ml LIF for 7 days and the number of newly formed neurospheres (C) and the number total of cells (D) were determined.
The U373MG and A172 cells were a generous gift from J. Rich and D. Bigner and were cultured in DMEM with 10% fetal bovine serum (FBS). The primary culture of tumor cells (PCTC) and the GBM neurospheres were generated as described (Bruna et al., (2007) Cancer Cell 11, 147-160; Gunther et al., (2008) Oncogene. May 1; 27(20):2897-909). Briefly, the samples of tumors were processed in the 30 minutes after the surgical resection. The ground pieces of the samples of human gliomas were digested with 200 U/ml collagenase I (Sigma) and 500 U/ml of DNase I (Sigma) in PBS for 2 hours at 37° C. and with constant vigorous stirring. The suspension of individual cells was filtered through a 70 μm cell filter (BD Falcon) and washed with PBS. […]
qRT-PCR was performed using Taqman probes from Applied Biosystems, according to the manufacturer's recommendations. The reactions were carried out in a ABI 7000 sequence detector (Perkin Elmer) and the results were expressed as the fold change calculated by means of the DDCt method relative to the control sample or the first quantified sample. […]
It was decided to assess whether this effect was specific to tumor cells or was also present in normal neuroprogenitor cells. […] First, it was determined if TGFβ induced LIF in normal human neuroprogenitors. […]

GBM neurospheres = test: Differentiation of GBM neurospheres (neuroprogenitor markers, adhesion); assay type: cell-based, human; conditions: GBM1 neurospheres, 7 days without EGF or FGF, 100 pM TGFβ1 or 20 ng/ml LIF
Protocol: FIG. 7. TGFβ and LIF prevent the differentiation of GBM neurospheres. (A) Immunocytochemistry of the indicated proteins was performed in neurospheres derived from GBM1 treated with 100 pM TGFβ1 or 20 ng/ml LIF for 7 days in the absence of growth factors and the last 3 days on slides coated with poly-L-lysine. (B) The mRNA levels of Musashi-1 (Msi-1), Sox2 and Nestin were determined in GBM1 neurospheres after 7 days of the indicated treatments without growth factors. The RNA levels of 18S were used as an internal normalization control.
The immunocytochemistry of neurospheres and differentiated neurospheres was performed as described (Geshwind et al., 2001) using the following antibodies: anti-nestin (Chemicon), anti-GFAP (Dako), anti-TuJ1 (Chemicon), anti-04 (Chemicon), anti-Sox2 (Chemicon), anti-α-tubulin (Sigma). The nuclei were counterstained with 4′,6-diamino-2-phenylindole (DAPI).
as §1
The neurospheres derived from GBMs grown in the absence of growth factors and seeded in poly-L-lysine-coated plates tend to differentiate losing the expression of the neuroprogenitor markers Musashi-1, Sox2 and Nestin, and being adhered to the culture plate. It was decided to evaluate the effect of TGFβ and LIF on this differentiation process. The neurospheres were cultured in the presence of TGFβ or LIF without EGF or FGF for 7 days and subsequently processed for immunohistochemical staining and qRT-PCR assays for determining the levels of the neuroprogenitor markers Musashi-1, Sox2 and Nestin.

B1: TGFβ3: TGFβ3 (R&D Systems), member of the TGFβ family (protein, UniProt P10600 301-412, looked up)
Transforming growth factor …: ALDTNYCFRNLEENCCVRPLYIDFRQDLGWKWVHEPKGYYANFCSGPCPYLRSADTTHSTVLGLYNTLNPEASASPCCVPQDLEPLTILYYVGRTPKVEQLSNMVVKSCKCS
LIF transcript in neurospheres derived from patients [1]: capable of inducing LIF
induction of LIF mRNA in normal human neuroprogenitor neurospheres [2]: did not induce LIF
expression of Musashi-1, Sox2 and Nestin (immunocytochemistry, qRT-PCR) (GBM neurospheres): maintained the expression
